Test results as given in article doi:10.1101/2021.02.26.433003 (bioRxiv, 2021).

Biological target: the molecule itself
Test: dynamic light scattering + fluorescence microscopy

B1: Dhh1^48-425 (domain or fragment, yeast, UniProt P39517 48-425, looked up)
chain: FEDFYLKRELLMGIFEAGFEKPSPIQEEAIPVAITGRDILARAKNGTGKTAAFVIPTLEKVKPKLNKIQALIMVPTRELALQTSQVVRTLGKHCGISCMVTTGGTNLRDDILRLNETVHILVGTPGRVLDLASRKVADLSDCSLFIMDEADKMLSRDFKTIIEQILSFLPPTHQSLLFSATFPLTVKEFMVKHLHKPYEINLMEELTLKGITQYYAFVEERQKLHCLNTLFSKLQINQAIIFCNSTNRVELLAKKITDLGYSCYYSHARMKQQERNKVFHEFRQGKVRTLVCSDLLTRGIDIQAVNVVINFDFPKTAETYLHRIGRSGRFGHLGLAINLINWNDRFNLYKIEQELGTEIAAIPATIDKSLYVAENDET
binding result: binds
